Test [1] deals with T1, natural human type I interferon receptor (IFN-R) on the surface of human cells (human) (UniProt P17181).
T1 sequence: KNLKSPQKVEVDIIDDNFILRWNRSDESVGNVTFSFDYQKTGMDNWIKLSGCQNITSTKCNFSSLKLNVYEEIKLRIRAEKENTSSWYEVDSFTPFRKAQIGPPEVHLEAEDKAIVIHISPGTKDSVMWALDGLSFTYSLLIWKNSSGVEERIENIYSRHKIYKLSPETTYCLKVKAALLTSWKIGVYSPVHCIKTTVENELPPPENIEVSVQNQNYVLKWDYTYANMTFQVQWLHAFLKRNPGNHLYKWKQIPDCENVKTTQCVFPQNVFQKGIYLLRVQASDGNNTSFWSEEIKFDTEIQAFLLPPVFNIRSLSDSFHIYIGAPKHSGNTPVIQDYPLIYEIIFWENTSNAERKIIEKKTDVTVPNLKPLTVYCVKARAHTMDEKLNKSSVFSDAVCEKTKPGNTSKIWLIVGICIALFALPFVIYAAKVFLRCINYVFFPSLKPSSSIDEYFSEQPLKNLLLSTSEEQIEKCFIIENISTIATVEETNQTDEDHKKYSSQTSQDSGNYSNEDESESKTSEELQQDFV
The experiment in a line: inhibition of binding of 125I-IFN alpha 2 (100 pM) to HL60 cells, 4 C; competitor: labelled IFN alpha 2.

Test [2] concerns the target T1, natural human type I interferon receptor (IFN-R) on the surface of human cells (human). Briefly: inhibition of binding of 125I-IFN alpha 2 (100 pM) to Ly28 cells, 4 C; competitor: labelled IFN alpha 2.
The target is the same in test [3]. Briefly: inhibition of binding of 125I-IFN alpha 2 (100 pM) to K562 cells, 4 C; competitor: labelled IFN alpha 2.
For test [4] the target is unchanged. Briefly: inhibition of binding of 125I-IFN alpha 2 (100 pM) to Daudi cells, 4 C; competitor: labelled IFN alpha 2.

This passage reports IC50 results from patent publication US20040191840A1.

B1: monoclonal antibody 64G12 (antibody, from another filing, IgG1, V domains shown)
VH: QVTLKESGPGILKPSQTLSLTCSFSGFSLSTSGMGIGWIRQPSGKGLEWLAHIWWDDDKYYNPSLKSQLTISRDTSTNQVFLNITSVDTVDTATYYCGRNYYPYDAWFDYWGQGTLVTVS
VL: EIVLTQSPTTMAASPGEKITITCSASSSINSNHLHWYQQKPGFSPKVLIYRTSILASGVPTRFSGSGSGTSYSLTIGTMEAEDVATYYCQQGSNIPFTFGSGTELEIKR
Broadly, the IC50 is the concentration at which inhibition is half-maximal. Low readings indicate inhibition by little substance, high ones a need for much substance. With B1, the IC50 in test [1] came out at 11 µg/mL; in test [2] it was 60 µg/mL; in test [3], 0.4 µg/mL; in test [4] it was 0.4 µg/mL.
